B1: Fh3GT2 (Freesia hybrid cultivar) (protein)
chain: MGSSQPPTRRRHVAVIAFPFSSHPAALFTLARAMAAAAPGTTFSFLSFPGSVDSLSKIPCRPENLRLCHVADPTPPGAIPPEQRIGMFLAAAPAYLRAGIKAAEALDGGGVTCLVSDSLLWMTADVAEEKGVPWVAVWTGGTSALVVHVYTDRLRKFYGVVHGDAIHPRADELLDVNVVPGFSEHRVRDLPEGILWKVDSPFASLVDTMVSKFPRAVAVVANTIPGLDPGLDAAFASKFKNYLPIGPFTILSPLPSPQHDNECVAWLDRQAPASVAYVSFGTLAALPPSELTELANGLEASGVPFLWSMKNKEALPAGFLDRTRGKGLVVDWAPQASVLAHNAVGGFVTHCGWSSVMESVAAGVPMICRSVFGDQTMTAKMVCNAWKIGFGFSGGAITREEVVRGLRMVLRGEEGGREIRERSSELKSLAWREVKVEGRTVKNLNSLIEIING
notes: recombinant from E. coli BL21 (DE3), pET32a, N-terminal 6x His tag, Ni Sepharose purified
B2: Fh3GT1 (Freesia hybrid cultivar) (protein)
chain: MGSADRSHVALLAFPFGTHAAPLLSLGLNLASSAPHGTTFSFLSNRRPVSLPPNSAIKFYEIADGSDPEHEGHVHPEEEVRVFMEETPGNYKKALEAAVDRCGGQRVTCIVADAFLWFVGDIAAEFGVHWVPLWTGGPCSFLAHLYTDMLRNKIGTGKEADPDEDLQFLPGLSGFRVRDLPDDIVTGDLTGAFASLLHRMSIEIPRSAAAIAINTFEGLHPDIDADLASKFKKSLPIGPLNLLNPTLNQPDRFSCLAWLDKFEPHSVAYVSFGTLAALTEAELVELASGLEQSGVPFLWSLKEPGQLPAGFLDRTKDRGLVVPWVPQAEALKHVAVGASLSHCGWNSVMESVTSGVPMLCRPFLGDQTMNARAVSHVWKVGVTFENGTMTRANVAEAMKKVVVGEEGRKMRERAAAIREMAAGSVRPGGSSVQNFKALLDIVIAR
notes: as for B1

Key:
[1] = substrate: O=c1c(O)c(-c2ccc(O)c(O)c2)oc2cc(O)cc(O)c12; test: HPLC glucosyltransferase assay; type: biochemical, Freesia hybrid cultivar; details: 10 mM UDP-glucose, 50 mM HEPES pH 8.0, 30°C, 2 min, acceptor 10-60 µM
purified protein = substrate: O=c1c(O)c(-c2ccc(O)cc2)oc2cc(O)cc(O)c12; test: purified protein; details: 10 mM UDP-glucose, 50 mM HEPES pH 8.0, 30°C, 2 min
[2] = acceptor 10-60 µM (Km lies far below this range)

Protein	Km [1] [µM]	kcat [1] [s⁻¹]	kcat/Km [1] [M⁻¹ s⁻¹]	Km (purified protein; [2]) [µM]	kcat (purified protein; [2]) [s⁻¹]	kcat/Km (purified protein; [2]) [M⁻¹ s⁻¹]	Km (purified protein; acceptor 10-60 µM) [µM]
B1	16.62 ± 0.03	1.86 ± 0.0023	112000	0.13 ± 0.01	0.73	5.46e+06	–
B2	96.38 ± 5.03	4.51 ± 0.039	46900	–	–	–	45.38 ± 3.90

Reference: publication PMC6813240, “Functional Differentiation of Duplicated Flavonoid 3-O-Glycosyltransferases in the Flavonol and Anthocyanin Biosynthesis of Freesia hybrida” (Frontiers in Plant Science, 2019)
